Measured values from patent US20140322216A1 (University of Pennsylvania, published 2014).

B1: scFv 3D8 (scFv, V domains shown)
VH: QVQLVQSGGGLAQPGGSLRLSCAASGSSFSTFVLSWVRQTPGKGLQWVSTISGSGTSTYYADSVKGRFTVSRDNAKNTQYLQMNSLRAEDTAIYYCARHKSFGVQWLWGQGALVVRLL
VL: VHIVMTQSPLSLPVTLGQPASISCWSSQSLVYGDGNTYLNWFQQRPGQSPRRLIYKVSNRDSGVPDRFSGSGSGTDFTLKISRVEAEDVGVYYCMQGTHWPPGTFGGGTKLEIK
notes: Human scFv secreted by yeast, one polypeptide with His and V5 tags
B2: scFv 2G9 (scFv, V domains shown)
VH: QVQLQESGPGLVKPSETLSLSCTVSGGSISSSSYYWAWIRQPPGKGLEWIGNIYYSGSTYYNPSLKSRVTISVDTSKNQFSLKLSSVTAADTAVYYCARFPLIRGYRYRYDEYWGQGTLVTVSS
VL: DIVMTQSPLSLPVTPGEAASISCRSSQSLLHRDGYHYLNWFLQKPGQSPQLLIYLGSNRASGVPDRFSGSGSGTDFTLKISRVEAEDVGVYYCMQAPQTPRTLLGQGTKLEIK
notes: as for B1
B3: scFv 3E11 (scFv, V domains shown)
VH: QVQLVQSGGGVVQPGRSLRLSCAASGFTFSSYGLHWVRQAPGKGLEWVAAISYDGSKKYYADSVKGRLTISRDNSKNTLYLQMNSLSPEDTALYFCARGWFVEPLSWGQGTLVTVSS
VL: not shown
notes: Human scFv secreted by yeast (p416-BCCR vector), one polypeptide; purified on nickel/anti-HIS and detected with anti-V5, so it carries His and V5 tags
B4: scFv 4G5 (scFv, V domains shown)
VH: QVQLQESGLGLVKPSETLSLTCAVSGYSITSGYYWGWIRQTPGKGLEWIGRIYYGGSTHYNPSLQSRVTISVDTAKNQFSLKLSSVTAADTAVYYCARDRNYQSLSGYCLDYWGQGKVVTVSS
VL: EIVLTQSPGTLSVSPGERATLSCRASQSVSSHIAWYQQKPGQAPRLLIHGASTRATGVPARFSGSGSGTEFTLTISSLQSEDFAVYYCQQYNKWPPEYTFGQGTKLEIK
notes: as for B1

How the values were obtained:
[1] = molecular target: T1, full-length glycosylated recombinant hGPC3 protein expressed in a murine myeloma cell line (human, UniProt P51654 25-559, limits assumed); assay: direct ELISA on rhGPC3 coated at 0.5 ug/ml
T1 construct: Bought protein; also called rhGPC3; full length hGPC3 protein expressed by mammalian cells
T1 sequence (P51654 25-559 limits assumed): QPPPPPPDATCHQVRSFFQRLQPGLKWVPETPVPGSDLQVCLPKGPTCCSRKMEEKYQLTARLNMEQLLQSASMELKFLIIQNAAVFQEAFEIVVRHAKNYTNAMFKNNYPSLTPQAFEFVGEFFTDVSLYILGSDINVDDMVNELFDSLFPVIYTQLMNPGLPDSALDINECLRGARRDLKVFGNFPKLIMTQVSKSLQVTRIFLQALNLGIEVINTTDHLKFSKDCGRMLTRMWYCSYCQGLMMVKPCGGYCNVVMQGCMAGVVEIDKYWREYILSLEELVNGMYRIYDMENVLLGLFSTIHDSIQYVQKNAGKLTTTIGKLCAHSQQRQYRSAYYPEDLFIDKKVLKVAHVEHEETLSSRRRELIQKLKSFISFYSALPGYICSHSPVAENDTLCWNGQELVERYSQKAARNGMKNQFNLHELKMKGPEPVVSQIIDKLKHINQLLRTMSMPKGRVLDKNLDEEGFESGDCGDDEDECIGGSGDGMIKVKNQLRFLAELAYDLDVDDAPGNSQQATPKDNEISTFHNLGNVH
Method: (§1) FIG. 4A depicts the results of immunoblot analysis of binding of scFv to rhGPC3. The antigens including rhGPC3 and GST protein were spotted onto cellulose membrane (10 ng/each). After the blocking step the membrane were incubated with the scFvs antibody in room temperature for 1 h. The binding of scFv to antigen was detected by incubation with mouse anti-V5 mAb following by infrared dye IR680-labeled anti-mouse antibodies. PBS was used as negative control. FIG. 4B depicts results of direct ELISA for affinity determination of scFv 3E11. Two different concentrations of rhGPC3 protein (0.5 and 1.0 ug/ml) were coated and incubated with serial diluted scFv 3E11. For detection, mouse-sourced anti-V5 mAb following HRP-conjugated anti-mouse antibody and SureBlue substrate (measured at 450 nm) was used. FIG. 4C depicts EC50 values for 5 candidate scFvs determined by direct ELISA, Assays were performed twice separately for each scFv.
(§2) After three washing steps with PBS/0.1% Tween-20 (PBST), 300 ul per well of blocking solution (2% milk in PBS pH 7) was added for 2 h at room temperature then washed three tinmes with PBST. Candidate scFv starting at 100 ug/ml were added with serial dilutions, incubated for Ih at room temperature followed by three washing steps with PBST, scFv binding was detected by adding anti-V5 HRP (Invitrmgen), washing ×4 with PBST, washing ×1 with PBS, then adding 50 ul/well of TMB peroxidase substrate (KPL, Gaithersburg Md.) plus peroxidase substrate solution B at 1:1 ratio, then the reaction was stopped using 50 ul of 0.5M H₂SO₄. OD450 was measured using a BioRad 680 microplate reader. For determination of functional affinity, half maximal binding concentration (EC50) was calculated with non-linear regression curve fit algorithm using the software program PRISM (GraphPad Software, San Diego, Calif.). rhGPC3 expressed in a murine myeloma cell line which was commercially obtained from R&D Systems (Minneapolis Minn.).

[2] = molecular target: T1, full-length glycosylated recombinant …; assay: direct ELISA on rhGPC3 coated at 1 ug/ml
Method: as §1, §2

GST protein = GST protein (UniProt P08515 1-218 = GST); assay: dot blot, 10 ng GST per spot, scFv detected with anti-V5 mAb and IR680 anti-mouse
Chain of GST protein (P08515 whole entry): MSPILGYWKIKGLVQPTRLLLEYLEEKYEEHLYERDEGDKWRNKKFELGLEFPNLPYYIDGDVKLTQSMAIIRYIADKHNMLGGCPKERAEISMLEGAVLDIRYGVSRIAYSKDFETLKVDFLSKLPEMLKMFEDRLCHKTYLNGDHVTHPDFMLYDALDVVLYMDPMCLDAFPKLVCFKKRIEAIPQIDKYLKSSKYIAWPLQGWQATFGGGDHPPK
Method: as §1

[3] = molecular target: T1, full-length glycosylated recombinant …; assay: direct ELISA on rhGPC3, lower coat (open circles; key prints '0.5mg/ml', legend says 0.5 ug/ml)
Method: as §1
(§3) After three washing steps with PBS/0.1% Tween-20 (PBST), 300 ul per well of blocking solution (2% milk in PBS pH 7) was added for 2 h at room temperature then washed three tinmes with PBST. […] OD450 was measured using a BioRad 680 microplate reader. […]

[4] = molecular target: T1, full-length glycosylated recombinant …; assay: direct ELISA, rhGPC3 coated at 0.5 ug/ml; rhGPC3 at 0.5 ug/ml
Method: as §1, §3

[5] = molecular target: T1, full-length glycosylated recombinant …; assay: ELISA on rhGPC3 precoated at 1 ug/ml; drawn table headed 'Table 1. Kd of scFv candidates', column EC50 (nM)
[6] = molecular target: T1, full-length glycosylated recombinant …; assay: direct ELISA, rhGPC3 coated at 1 ug/ml; rhGPC3 at 1 ug/ml
Method: as §1, §3

Row | Binder | EC50 [1] [µM] | EC50 [2] [µM] | binding result (GST protein) | EC50 (read off the curve) [3] [µM] | EC50 [4] [µM] | EC50 [5] [µM] | EC50 [6] [µM]
1 | B1 | 0.105 | 0.0947 | – | – | – | – | –
2 | B2 | – | 0.111 | no binding | – | – | – | –
3 | B3 | 0.012 | 0.0111 | no binding | ~0.01 | 0.011 | 0.012 | 0.014
4 | B4 | 0.0388 | – | no binding | – | – | – | –
